# Patent US20060045883A1, “Anti-cancer vaccines” (priority 2004, published 2006)
# Molecular target: HLA-A2.1 (HLA-A*0201) on the surface of T2 cells (human)
binder,measurement,value
"KLGEFYNQMM (modifications not checked) [Influenza B nucleoprotein peptide (aa 85-94; Flu), P04665 85-94]",Median Channel of Fluorescence of HLA-A2 Expression on T2,194
